In publication PMC4141738:

Target: endogenous PABPC1 of HEK 293T cells (human (endogenous in HEK 293T)) (UniProt P11940)
Sequence of UniProt P11940 (P11940 whole entry): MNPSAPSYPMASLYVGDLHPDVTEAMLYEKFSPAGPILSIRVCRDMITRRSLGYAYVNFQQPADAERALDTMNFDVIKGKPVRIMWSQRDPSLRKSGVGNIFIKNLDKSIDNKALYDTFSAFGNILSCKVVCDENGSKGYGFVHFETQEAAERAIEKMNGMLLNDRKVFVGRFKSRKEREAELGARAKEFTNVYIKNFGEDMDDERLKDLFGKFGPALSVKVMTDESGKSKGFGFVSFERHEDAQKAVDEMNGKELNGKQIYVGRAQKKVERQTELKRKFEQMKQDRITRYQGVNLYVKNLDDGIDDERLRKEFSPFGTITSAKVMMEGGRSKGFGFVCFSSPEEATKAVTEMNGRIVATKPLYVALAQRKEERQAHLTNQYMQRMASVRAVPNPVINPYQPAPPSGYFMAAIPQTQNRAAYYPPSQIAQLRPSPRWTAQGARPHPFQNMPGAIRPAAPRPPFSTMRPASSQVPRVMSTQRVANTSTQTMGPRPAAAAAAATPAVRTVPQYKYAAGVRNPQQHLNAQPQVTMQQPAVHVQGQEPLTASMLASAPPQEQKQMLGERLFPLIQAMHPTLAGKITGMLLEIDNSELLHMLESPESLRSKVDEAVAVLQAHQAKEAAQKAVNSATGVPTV

miniμ ter310 construct A reporter mRNA level (RT-qPCR) relative to LacZ-MS2 on tethering of eIF4GId-MS2 in HeLa cells	Substance	miniμ ter310 construct A reporter mRNA level (RT-qPCR) relative to LacZ-MS2 on tethering of eIF4GIe-MS2 in HeLa cells
4 fold	eIF4GI isoform d fused to MS2-HA (eIF4GId-MS2) (natural protein)	
	eIF4GI isoform e fused to MS2-HA (eIF4GIe-MS2) (natural protein)	4 fold
